From patent US20040063632A1 (Bayer, published 2004)

T1: Human FVIIa (human, UniProt P08709 61-466)
T1 construct: Bought protein; also called factor VIIa
T1 sequence (looked up): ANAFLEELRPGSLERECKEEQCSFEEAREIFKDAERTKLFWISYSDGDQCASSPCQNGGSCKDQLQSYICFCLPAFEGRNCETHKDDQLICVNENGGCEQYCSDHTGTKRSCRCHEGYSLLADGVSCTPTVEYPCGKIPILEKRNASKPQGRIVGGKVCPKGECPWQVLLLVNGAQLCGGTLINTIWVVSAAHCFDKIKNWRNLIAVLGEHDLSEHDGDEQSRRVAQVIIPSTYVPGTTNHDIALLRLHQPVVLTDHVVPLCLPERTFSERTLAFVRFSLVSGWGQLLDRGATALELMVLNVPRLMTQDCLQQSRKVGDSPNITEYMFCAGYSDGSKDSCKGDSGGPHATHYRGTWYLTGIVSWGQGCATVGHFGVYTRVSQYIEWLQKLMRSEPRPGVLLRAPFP

B1: recombinant human soluble tissue factor (receptor, UniProt P13726 33-251, looked up)
chain: SGTTNTVAAYNLTWKSTNFKTILEWEPKPVNQVYTVQISTKSGDWKSKCFYTTDTECDLTDEIVKDVKQTYLARVFSYPAGNVESTGSAGEPLYENSPEFTPYLETNLGQPTIQSFEQVGTKVNVTVEDERTLVRRNNTFLSLRDVFGKDLIYTLYYWKSSSSGKKTAKTNTNEFLIDVDKGENYCFSVQAVIPSRTVNRKSTDSPVECMGQEKGEFRE
notes: extracellular domain; also called sTF; soluble TF
B2: scFv(TF)3e10-TMi456 fusion protein (other)
chain: EMAQVNLRESGGTLVQPGGSLRLSCAASGFSFTDAWMSWVRQAPGKELEWVSSISGSGGSTYYAGSVKGRFTISRDNSKNTLYLQMNSLRAEDTAVYYCARVLSLTDYYWYGMDVWGQGTLVTVSAGGGGSGAPNFMLTQPHSVSASPGKTVTISCTRSSGSVASYYVQWYQQRPGSSPTTVIYEDNHRPSGVPDRFSGSIDTSSNSASLTISGLKTEDEADYYCQSYDSNNLVVFGGGTKLTVLGAAAGGGGSGGGGSGGGGSVEPVDPCFRANCEYQCQPLNQTSYLCVCAEGFAPIPHEPHRCQMFCNQTACPADCDPNTQASCECPEGYILDDGFICTDIDECENGGFCSGVCHNLPGTFECICGPDSALAGQIGTDCAAAGAPVPYPDPLEPRAA
B3: scFV(TF)3e10 (dimer) (scFv)
scFv: EMAQVNLRESGGTLVQPGGSLRLSCAASGFSFTDAWMSWVRQAPGKELEWVSSISGSGGSTYYAGSVKGRFTISRDNSKNTLYLQMNSLRAEDTAVYYCARVLSLTDYYWYGMDVWGQGTLVTVSAGGGGSGAPNFMLTQPHSVSASPGKTVTISCTRSSGSVASYYVQWYQQRPGSSPTTVIYEDNHRPSGVPDRFSGSIDTSSNSASLTISGLKTEDEADYYCQSYDSNNLVVFGGGTKLTVLGAAAGAPVPYPDPLEPRAA
B4: single chain anti-TF antibody scFv(TF)3e10 (scFv)
scFv: B3 scFv
notes: Human scFv from phage library HuPhaBL3

Assays:
Human FVIIa = target: T1, Human FVIIa; assay: sTF/FVIIa activation assay: sTF titrated against 2 nM FVIIa without antibody, rate of cleavage of chromogenic substrate S-2266, apparent KD from a 4-parameter fit
[1] = target: full length TF in phospholipid vesicles (human, UniProt P13726 33-295); assay: cell-based or functional assay
[2] = target: T2, sTF/FVIIa complex (preformed from sTF and a 2.3 fold molar excess of FVIIai) (human, UniProt P13726 33-251; P08709 61-466, limits assumed, active site inhibited (FVIIai); the way of inhibition is not stated for this batch); assay: isothermal titration calorimetry
T2 construct: Complex used in the microcalorimeter cell; complete complexing of sTF verified by size exclusion chromatography; also called sTF/VIIa complex; FVIIa/TF complex
Procedure: (§1) FIG. 3. […] Isothermal titration calorimetry was performed using a MicroCal VP-ITC instrument. […] Data analysis was done using MicroCal Origin software. The data was fit to a single binding site.

[3] = target: B1; assay: isothermal titration calorimetry (MicroCal VP-ITC), 141 µM scFv(TF)3e10 in the syringe, 10 µM sTF in the cell, OneSites model
Procedure: as §1

[4] = target: B1; assay: isothermal titration calorimetry (MicroCal VP-ITC), 10 uM sTF in the cell, 141 uM scFv in the syringe; microcalorimetry, free sTF as target
Procedure: as §1

[5] = target: T2, sTF/FVIIa complex (preformed from sTF …); assay: isothermal titration calorimetry (MicroCal VP-ITC), 1.2 uM complex in the cell, 65 uM scFv in the syringe; microcalorimetry, TF/FVIIa complex as target
Procedure: as §1

[6] = target: B1; assay: apparent KD from the sTF/FVIIa chromogenic activation assay (3 nM sTF, 2 nM FVIIa, antibody titrated, 4-parameter fit); sTF/FVIIa chromogenic assay, apparent KD
[7] = target: T2, sTF/FVIIa complex (preformed from sTF …); assay: isothermal titration calorimetry (MicroCal VP-ITC), 65 µM scFv(TF)3e10 in the syringe, 1.2 µM preformed sTF/FVIIai complex in the cell, OneSites model
Procedure: as §1

B1 was tested, and the Kd (Human FVIIa) was 13 nM.

B2 was tested, and the “IC50 of FX activation by the FVIIa/TF complex” value [1] was 0.5 nM and the “TM cofactor activity (protein C activation assay on TF-rich surface)” value [1] was greater than 5 fold.

With B3 the “IC50 for inhibition in the FX activation assay” value [1] was 0.44 nM.

With B4 the “fold higher affinity than for free sTF” value [2] was 20 fold, the N [3] was 0.878 and the ΔH [3] was -21.9 kcal/mol. The ΔS [3] was -43.6, the Kd [4] was 600 nM and the Kd [5] was 33 nM. It also gave a Kd [6] of 65.4 nM, an N [7] of 1.14 and a ΔH [7] of -28.6 kcal/mol. For the same binder, the ΔS [7] was -60.
